Results reported in patent US20130040894A1, “INHIBITION OR ACTIVATION OF SERINE/THREONINE ULK3 KINASE ACTIVITY” (TALLINN UNIVERSITY OF TECHNOLOGY, priority 2009, published 2013).
Changes are numbered by the printed parent chain. In names and notes the source's numbering stands. One block for each molecule: values may come before it.

Columns and labels:
[1] = target: T1, His-tagged GLI1 fragment, amino acids 426-754
T1 chain: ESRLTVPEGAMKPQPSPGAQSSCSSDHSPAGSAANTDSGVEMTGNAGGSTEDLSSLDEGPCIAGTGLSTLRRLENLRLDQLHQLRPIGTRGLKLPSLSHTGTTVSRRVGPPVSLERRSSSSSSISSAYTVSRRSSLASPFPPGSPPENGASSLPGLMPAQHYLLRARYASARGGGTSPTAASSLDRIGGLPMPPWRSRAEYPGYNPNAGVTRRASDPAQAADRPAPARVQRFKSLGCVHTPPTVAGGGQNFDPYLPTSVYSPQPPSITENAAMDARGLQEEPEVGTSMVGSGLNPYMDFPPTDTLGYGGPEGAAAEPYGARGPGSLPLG

GLI3 = assay: In vitro kinase assay, phosphorylation of GLI3; type: biochemical; details: FLAG-tagged GLI3 immunoprecipitated from HEK293 cells
Protocol: (§1) HEK293 cells were transfected with 13.5 μg of FLAG-tagged constructs expressed GLI1, GLI2, GLI3, ULK3, ULK3(K44R), ULK3(K139R) or FLAG-CMV-4 empty vector on 10 cm plates. The cells were lysed with 0.5 ml of Lysis Buffer (50 mM Tris HCl, pH 7.4, 150 mM NaCl, 1 mM EDTA, 1% Triton X-100) containing protease inhibitor cocktail (PIC) (Roche Applied Science). The lysates were centrifuged for 15 min at 4° C. and 15000 g, and the supernatants were used for immunoprecipitation (IP). IP was performed using anti-FLAG-M2 affinity gel (Sigma-Aldrich) in batch format according to the manufacture's instructions. Immune complexes were washed three times with 500 μl of Kinase Buffer (KB) (50 mM HEPES, pH 7.4, 20 mM MgCl2, 25 μM ATP) and resuspended in 12.5 μl of KB. One fifth of the immuno-complexes was subjected to WB and the rest was used for the kinase assay.
(§2) Kinase reactions were carried out in KB in a total volume of 20 μl of in the presence of 1 μCi of [γ-^32P]ATP per reaction. We used 1 μl of the immunoprecipitated ULK3, ULK3(K44R) or ULK3(K139R) mixed with 5 μl of the GLI-M2 immunocomplexes or 5 μl of bacterially expressed and purified His-GLI1 fragments. Kinase reactions were held at 30° C. for 30 min and terminated by adding of 5 μl of 4× Laemmli Sample Buffer. Proteins were resolved by SDS-PAGE. […]

GLI2 = assay: In vitro kinase assay, phosphorylation of GLI2; type: biochemical; details: FLAG-tagged GLI2 immunoprecipitated from HEK293 cells
Protocol: as §1, §2

ULK3 = assay: In vitro kinase assay, autophosphorylation; type: biochemical, human; details: FLAG-tagged protein immunopurified from HEK293 cells, γ-P32-ATP
Protocol: as §1
(§3) Kinase reactions were carried out in KB in a total volume of 20 μl of in the presence of 1 μCi of [γ-^32P]ATP per reaction. We used 1 μl of the immunoprecipitated ULK3, ULK3(K44R) or ULK3(K139R) mixed with 5 μl of the GLI-M2 immunocomplexes or 5 μl of bacterially expressed and purified His-GLI1 fragments. Kinase reactions were held at 30° C. for 30 min and terminated by adding of 5 μl of 4× Laemmli Sample Buffer. Proteins were resolved by SDS-PAGE. The gel was dried at 80° C. for 2 h, and autoradiography was performed using Bio-Rad Personal Molecular Imager FX.
To test if ULK3 has an autophosphorylation activity, we expressed FLAG-tagged wild-type ULK3 and mutants ULK3(K44R) and ULK3(K139R) in HEK293 cells, immunopurified and subjected to in vitro kinase assay in the presence of γ-P^32-ATP.

[2] = system: GLI1 mRNA expression in HEK293 cells; assay: Quantitative RT-PCR of endogenous GLI1 mRNA expression; type: cell-based, human; details: normalized by HPRT; for induction of endogenous GLI1 expression: 72 h; for endogenous GLI1 expression level relative to empty vector: FIG. 5B
Protocol: HEK293 cells were transfected with FLAG-tagged wt ULK3, ULK3(K139R) or respective empty vector in two replicates. After 5 h of incubation one replicate of cells transfected with the vector was induced by SHHC24II. The cells were incubated 24 h and 72 h, washed with PBS. Total RNA was isolated and treated with DNaseI using RNAqueous kit (Ambion) according to manufacture's instructions. cDNA of 2 μg total RNA was synthesised using SuperScript III kit (Ambion). Levels of GLI1 mRNA and mRNA of housekeeping gene HPRT used for normalization were detected in triplicates by quantitative Real-Time PCR. The following GLI1 primers were used for the assay: […]
HEK293 cells were transfected by ULK3 or respective empty vector. Cells transfected with empty vector were induced by 12 nM of SHHC24II and were used as a posititve control. Cells were incubated 24 h and 72 h, and total RNA was isolated. Level of GLI1 expression was measured using QRT-PCR procedure and the obtained data was normalized by expression of housekeeping gene HPRT. Level of GLI1 expression in cells transfected with empty vector was taken as 1.

GLI1 = assay: In vitro kinase assay, phosphorylation of GLI1; type: biochemical, human
Protocol: Three overlapping human GLI1 domains corresponding to amino acids 1-433, 426-754 and 726-1106 were cloned into pET-15b vector (Novagen) between NdeI and BamHI sites. GLI1 amino acid sequence is provided as SEQ ID NO: 2). The fragments were expressed in BL21(DE3)pLys E. coli strain overnight at 21° C. using 0.1 mM IPTG and purified using Ni-CAM™ HC resin (Sigma-Aldrich) according to the manufacturer's recommendations. The proteins were eluted by PBS and verified by Western Blot (WB).
as §1, §3
We also assayed whether ULK3 is able to phosphorylate GLI proteins. FLAG-tagged GLI1, GLI2 and GLI3 proteins were expressed and immunoprecipitated from HEK293 cells and used as substrates for immunopurified ULK3 in the in vitro kinase assay. ULK3 was able to phosphorylate GLI proteins but with different efficiency (FIG. 3B). […] To support these findings and identify the regions in GLI1 protein that are phosphorylated by ULK3, we used bacterially expressed His-tagged fragments of GLI1 as substrate for ULK3 kinase. Two of them—GLI1(1-433) and GLI1(726-1106)—were phosphorylated by ULK3.

[3] = bacterially expressed His-tagged fragment

B1: FLAG-tagged wild-type ULK3 (human serine/threonine kinase ULK3) (protein)
chain: MAGPGWGPPRLDGFILTERLGSGTYATVYKAYAKKDTREVVAIKCVAKKSLNKASVENLLTEIEILKGIRHPHIVQLKDFQWDSDNIYLIMEFCAGGDLSRFIHTRRILPEKVARVFMQQLASALQFLHERNISHLDLKPQNILLSSLEKPHLKLADFGFAQHMSPWDEKHVLRGSPLYMAPEMVCQRQYDARVDLWSMGVILYEALFGQPPFASRSFSELEEKIRSNRVIELPLRPLLSRDCRDLLQRLLERDPSRRISFQDFFAHPWVDLEHMPSGESLGRATALVVQAVKKDQEGDSAAALSLYCKALDFFVPALHYEVDAQRKEAIKAKVGQYVSRAEELKAIVSSSNQALLRQGTSARDLLREMARDKPRLLAALEVASAAMAKEEAAGGEQDALDLYQHSLGELLLLLAAEPPGRRRELLHTEVQNLMARAEYLKEQVKMRESRWEADTLDKEGLSESVRSSCTLQ
in vitro kinase assay, phosphorylation of a His-tagged GLI1 fragment [1]: Central part of GLI1 (amino acids 426-754) was not phosphorylated by ULK3

phosphorylation of GLI2 (GLI2): strongest phosphorylation signal
autophosphorylation activity (ULK3): strong autophosphorylation activity
phosphorylation of GLI1(1-433) fragment (GLI1; [3]): phosphorylated
phosphorylation of GLI1(726-1106) fragment (GLI1; [3]): phosphorylated
phosphorylation of central part of GLI1 (amino acids 426-754) (GLI1; [3]): not phosphorylated
B2: ULK3: human serine/threonine kinase, 472 amino acids (SEQ ID NO: 1), overexpressed from cloned cDNA or immunopurified FLAG-tagged (protein, listed as Homo sapiens)
chain: B1 chain
modifications: PEPTIDE (1)..(472) ULK3
phosphorylation of GLI3 (GLI3): significantly lower intensity as compared to GLI2
induction of endogenous GLI1 expression [2]: able to induce
endogenous GLI1 expression level relative to empty vector [2]: approximately 6 times
phosphorylation of GLI1 (GLI1; FLAG-tagged GLI1 immunoprecipitated from HEK293 cells): significantly lower intensity as compared to GLI2

autophosphorylation activity (ULK3): almost completely absent
B3: ULK3(K139R): kinase-deficient ULK3 mutant with Lysine at position 139 mutated to Arginine (SEQ ID NO:7) (protein)
chain: B1 chain with K139R
modifications: MUTAGEN (1)..(472) mutated ULK3 protein ULK3 (K139R)
induction of endogenous GLI1 expression [2]: failed to activate
endogenous GLI1 expression level relative to empty vector [2]: failed to activate
